We go through two substances from US20220401476A1.

The target of assay [1] is rhIL-18 (IL-18, #9124-IL-010, R&D Systems) (human) (UniProt Q14116). In words: cell-based or functional assay.
Assay [2] deals with CD19 surface antigen on Raji lymphoma target-cells (#CCL-86, ATCC) (UniProt P15391). As to the kind of experiment: cell-based or functional assay.
UniProt P15391, sequence (P15391 20-556 limits assumed): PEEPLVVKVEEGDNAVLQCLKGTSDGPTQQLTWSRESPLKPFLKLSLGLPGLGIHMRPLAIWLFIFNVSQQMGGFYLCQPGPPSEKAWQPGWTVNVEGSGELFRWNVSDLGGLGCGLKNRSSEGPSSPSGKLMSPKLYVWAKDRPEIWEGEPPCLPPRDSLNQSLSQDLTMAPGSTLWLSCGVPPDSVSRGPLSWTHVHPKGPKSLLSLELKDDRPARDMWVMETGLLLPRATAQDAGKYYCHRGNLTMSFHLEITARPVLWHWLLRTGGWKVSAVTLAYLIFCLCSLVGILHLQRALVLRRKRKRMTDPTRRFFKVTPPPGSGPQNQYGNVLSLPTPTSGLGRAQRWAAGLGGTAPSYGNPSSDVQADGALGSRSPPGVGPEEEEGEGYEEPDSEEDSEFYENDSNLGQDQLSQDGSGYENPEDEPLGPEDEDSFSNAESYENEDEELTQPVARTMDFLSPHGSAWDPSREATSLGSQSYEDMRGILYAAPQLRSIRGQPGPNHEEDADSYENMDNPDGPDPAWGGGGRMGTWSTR

UniProt Q14116, sequence (Q14116 37-193 limits assumed): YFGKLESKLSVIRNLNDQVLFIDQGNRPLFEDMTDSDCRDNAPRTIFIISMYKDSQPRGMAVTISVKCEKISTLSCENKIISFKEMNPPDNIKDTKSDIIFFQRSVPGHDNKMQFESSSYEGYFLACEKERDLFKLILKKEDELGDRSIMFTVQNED

Regarding “recombinant human IL-18BP (rhIL-18BP, Tadekinig alfa)”, in assay [1], the IL-18BP-mediated inhibition (%) of IFN-γ in Tumor + CAR-T + IL-18 + IL-12 culture, day 1 was determined as 82%; the IL-18BP-mediated inhibition (%) of IFN-γ in Tumor + CAR-T + IL-18 + IL-12 culture, day 2 amounted to 79%; the IL-18BP-mediated inhibition (%) of IFN-γ in Tumor + CAR-T + IL-18 + IL-12 culture, day 3 worked out at 75%; the IL-18BP-mediated inhibition (%) of IFN-γ in Tumor + CAR-T + IL-18 culture, day 1 was found to be 100%. Moreover, in assay [1], the IL-18BP-mediated inhibition (%) of IFN-γ in Tumor + CAR-T + IL-18 culture, day 2 was 92%; the IL-18BP-mediated inhibition (%) of IFN-γ in Tumor + CAR-T + IL-18 culture, day 3 was found to be 79%; the reduction of IFN-γ production boosted by rhIL-12 and rhIL-18, average over three days was found to be 80%.

Regarding “CD19-specific CAR of CD19SCFV-CD28-4-1BB-CD3 CAR-T-cells (#PM-CAR1003-10M, ProMAB)”, in assay [2], the Mean concentration (pg/mL) of IFN-γ in culture medium, Tumor + CAR-T, day 1 was determined as 6910 pg/mL; the Mean cumulative concentration (pg/mL) of IFN-γ in culture medium, Tumor + CAR-T, day 2 is 21500 pg/mL; the Mean cumulative concentration (pg/mL) of IFN-γ in culture medium, Tumor + CAR-T, day 3 came to 32700 pg/mL.
